# Test results reported in the DeepSol protein solubility set.
# Test: soluble on expression in E. coli; label from the status in PepcDB or PDB records
row,Sequence,soluble on expression in E. coli
1,MGSDKIHHHHHHMKTRESSVGLKFRKFNRFYTNVLGFLNEHIYDSPFSLTETRILFEIYNTPNCTAKALQDKLGLDRGYVSRIVKQFEKEDLIYKQRSKDDARHHYIFVTETGKTIYKKLEEKANEQVELMLKVINQKEQHKLAEAMAEIEAILSQSLSARASEISIRDYFLSEDLQLLIEKQRQFYAEAHGWDDTFLAYLQETFDADIEKIWIAESGGKFAGSVGLVKHDEKTVQLRWFLVDADFRGRGLGTQLLEHLVAYCQDMKFDRIFLWTVSTMAEARPLYKKFGFRISEVKQEAPLWGQQLTEERWDLELS,not soluble
2,MGSDKIHHHHHHMKVLLYLEGKTVLEKSGIGRALQHQMEALDMAGIPYTTDLLGDYDVIHINTYGPRSWLLLHAAKRSGKKVIMHGHSTKEDFQNSFIGSNTLAPFVGKYLASMYQKADFVITPSEYSKKLIQSYGVTTPIIAVSNGIDLDKYKKDERKEAIFREHFKIEEGQPVVVCAGLYFRRKGIEDFVKVAEKMPHVRFIWLGSINKWLIPSYIRKIVEGDHPANVEFPGYFKGAVFQGAMSGADAFFFPSYEETEGIVVLEALASHQHVVLRDIPVYDGWVDENVAELGHTVDDFVDSIQKILDKQVDKREAGYQVAVSRSIDNVSHQLVDAYRQVLEM,not soluble
3,MGSDKIHHHHHHMKVYLVGGAVRDQLLGLPVKDRDWIVVGADPATLLSLGYQQVGKDFPVFLNPKTKEEYALARTERKSSAGYTGFICDFSPTITLEQDLIRRDLTINAMAQSEDGEIIDPYGGKQDLENRILRHISPAFSEDPLRVLRVARFAARYHSLGFKIASETLALMAELAQSGELQHLTAERIWLETEKALNEKNPEIYFETLHKTGALSVLFSEIDALYGVPNPVKHHPEVDSFIHTMLVLKQAVNLTENNPILNKSAVRFAAICHDLGKALTPQNILPHHYGHEQAGIKPTRSLCKRLKVPSYFQELAELTCEFHTHIHKAFELRAETVITLFNRFDVWRKPQRFQEFLQVCLADTRGRTGFETKDYPQIDYINQLLHAANEVDVQQVIADGFEKQAIKNELTKRRILAVKQTKTNYPTN,not soluble
4,MGSDKIHHHHHHMKWCSSMSDPKPCIICVAITGSVPTKAANPAVPITVAEQIESTHAAFEAGAAICHAHVRNDDETPSSDPEKFARLKEGVEGHCPGMIVQLSTGGRSGASKERGGMLPLRPDMASLSVGSNNFPTRVYENPPDLVDWLAAEMRTYDIKPEIEAFDLSHIHHAALMHQRGQLAGHPYVQFVMGVKNAMPADRETFDFYVATMTRLLPESEWCAAGIGPNQIVLNEWAIAAGGHARTGLEDNVRWDKQTLAPSNAALVERTAEICEKNGRPVATTAQAREILGLRT,not soluble
5,MGSDKIHHHHHHMKWTTPADLKAQVRKLWDRGLLLASLAGGEALFPRRLTLKSPDSRGLSERFPEVREWIAQLCSAAGFYRIEWRSVNHRVLGANEIPAAIWIDTLEEALGLIGKRRAADQFATLVELTRKKQPELVPWLAKRPLRALELSEDWPRLLEIVTWVLKHPRPAIYLRQIDLPGVHTKFIEGHRGVLAELLDLVLPGEAIDATHTGIGGFCRRYGFLDKPLRVRFRVLDRNIRLPAVESDQDITLTQASFASLDLPASKVFITENEINFLAFPDVPDAMVIFGAGYGFDNLAAAPWLHQRGIYYWGDIDTHGFAILNQLRGFFPHAVSFLMDLQTLLAHRSLWGVEKQPETGTLARLNSEESALYDQLRRNHWGERVRLEQERIGFGFLHDVLRRL,not soluble
6,MGSDKIHHHHHHMKYGIVGYSGRMGQEIQKVFSEKGHELVLKVDVNGVEELDSPDVVIDFSSPEALPKTVDLCKKYRAGLVLGTTALKEEHLQMLRELSKEVPVVQAYNFSIGINVLKRFLSELVKVLEDWDVEIVETHHRFKKDAPSGTAILLESALGKSVPIHSLRVGGVPGDHVVVFGNIGETIEIKHRAISRTVFAIGALKAAEFLVGKDPGMYSFEEVIFGGE,soluble
7,MGSDKIHHHHHHMLCALKHLFQGEPQQQAVSGLISTSYTDNDGETRISLKLEPRYENAGEVITKLVELDADPQVVRVGIQSSSIASFGSLENLVNAYGTLYRYLKDNYDSPAKLKKYWGYLANDVVFIQISTDVSSALKIFETINERGVGLNPMDLLKNLLFTQVGQAQFTQLKDEWKKITRPLEKGKEKPLFDHFVMQLENFLFYYIFTKTPTRDMERSFSQWANELRAIADAAECRCHNQWQGIDS,not soluble
8,MGSDKIHHHHHHMLDAQNVSVGYDEKTPIIQQLSFQVHKGEIFGILGPNGSGKTTLLKAVSGLLSPSEGTITLHGKAIADYHSKELAQKMAVLPQTADTAFAYKVKEVVALGRYPHQKGWLASESQEDERVIREAMEQTDTWKFRNKPLQTLSGGERQRALLARALCQEPDLLLLDEPTNHLDISHQMQLLDALKDWTRTRQLTVVAILHDLNMASLYCDRVLLLNEGRMVDLNSPRQVMTEHQLANVYETKIRRNEHPTIPRPLVTFEPAAIRSKPSSPISELEVFTSEQLIKVTSSIRWKTLSSAVLGAGFKWHQTFVNRHVSKDYYCDDVEREFQTFLSNVGVDGTDALGMMTAAILEDVAITEATYESFKVRVFVTAGISNAVDAAKAHLRKRNEATVGTINTWVFIEGTLPDAAYVQALMTATEAKGRALAEKEILDPVTGTLATGTSTDSVMIASSQTGTYFPYAGTITPLGQAIGKLVYDATIQAVTDNEKRRLER,not soluble
9,MGSDKIHHHHHHMLEFLSQQKPKILIIGDFMVDNYTWCDCSRISPEAPVLIAKTLKEDKRLGGAANVYANLKSLGADVFALGVVGDDESGKFLQENLKGEFLIQKGRKTPFKNRIMAHNQQVLRLDEEDISEILLENELIALFDEKIKDFKAVVLSDYAKGVLTPKVCKAVIEKAKVLNIPVLVDPKGSDFNKYSGATLLTPNKKEALEALKFENLEGENLEKGIKKLKEDFSLRYSIITLSEAGIALFDEGLKIAPAKALEVYDVTGAGDSVIAVLAFCLANEIEIFKACELANEAAAVVVSKIGSVSVSFDEIKSFKRVDFEKKIKSKEELLVLLKQNNKKIVFTNGCFDIVHFGHIKYLDKAKRLGDVLIVGLNSDASVKRLKGESRPVNSEFQRACMLAAFYFVDFVVIFDEDTPLELISFLKPDILVKGADYKDKLVVGADIVSRVELIDFEEGFSTSKIIEKIKDKK,not soluble
10,MGSDKIHHHHHHMLEQQATIVDVNESNLNQVLEHSATLPVLFYFWSARSQHCVELEPVLDKLAQEYAGQFVLAKVDCDAEQRVAAQFGLRSIPTVYLFKDGQPLDGFQGPQPEEAVRELLKRALPKEEELKVAQAQQLIQEDKLPEAMQLLKDAWQLSQQRSDIGLMLAEVQIQIKRSEDAEAVLAAIPLQDQDTRYHSLVAQIELLKQAADTPEIQHLQQQLDADPQNADLAVQLALQLHQVSRNEEALELLMGFLKKDLAVANGSARKTLMDIMAALGTSDALAARYRRQLYSLLY,not soluble
11,MGSDKIHHHHHHMLFLMDFSMQTHAQTGDITPVVFDQFFQNYYLINPASSDSTGKIQVNIGNRSLIGLFDGVNRLYVDGNVRINHRTAMQYSRLGALVIAYNDGAFINRTRAYLRYSWSTSISERASISAGISAGMVKYTFLASQAGGGGSSTSFDGNAGLWYIRPKLKIGISYQQFTRSELTPVNQTFLLTPYINVNAVYASYLSAHVLLTTHVFYRYESGSVFDIQAAPVFLFNDLFEAGINLRYKRGVAILFGLKSIHVGTGNIRFMGSFMLSTRKLANTLDNAFELSAGYSF,not soluble
12,MGSDKIHHHHHHMLHRRKTYTIRPERLQEFTEFFHTYLYPLQISHGARLVGRWVNEAEDEVIAIWEYRDREHYEQVDRDVRGSTLRREAMKKRARLGKNLYIKSTEDFLTATGVYAPPRAIVSVTAYITNEAGEVLLVRNLHRGDTYEMPGGQVENHESILDAVKREVKEETGADVTIEGITGIYQNVSSHVLCVAFRGTYTGGELRPQEGETAEVGFFDLNRENIDTYIKREHFQLRTLDAMDPHYFPHALYKVRPYELISRYDGNAPSALSGQN,not soluble
13,MGSDKIHHHHHHMLIEIPNVFSKQEVSHLREQLDARRWIDGNQTSGAMATTRKRNQQLDKDDPVAVALGQQIMDRLLAHPQFVSAALPLQFYPPLFNRYQGGETFGYHIDNAIRSTPDGMIRTDLSATLFLSEPENYQGGELVIQDTYGQQSIKLSAGSLVLYPSSSLHQVTPVLSGERTAAFMWLQSMVRDEGQRRLLFQLDQSIQSLTAQTAAEQELFNLSGVYHNLLRRWSEL,not soluble
14,MGSDKIHHHHHHMLKITFLGTNGWFDSNTGNTPSVLIEHRNYYIILDAGNGISKLRNCISSDKPVYLFLSHFHLDHISGLHTLPLNKFSKGLYIIVPKGGTKLINQFVNVPFTVPIKKLPFKTEIIEACNKLNFLPFKATFLPLVHSSYVLGIRLEIDSKTISYCTDTSYCFNAITLAKNADLLISECSMKPLGTDDASVHLNPELASKIAKEAGAKKLMLIHFDAAKYLTLDDRKKAELAAKTIFNNSYASYDDLELQV,not soluble
15,MGSDKIHHHHHHMLKSIKSSGVTAVLDHDGFNKRIRVVRYDGAIEKALPDIVAAAKEENAEKIIVYAKQHDEPILAKQLFAPEGYLKGYYLGHSACVMVRYLSESRRQTDSYTEEQEIIEAIYRTAPRLRNDSTPVFTMRKAETNDMYQLSMLYKKVFRTYPTPVFDPAYIEKTMNANTVYYIMLDHDRLISAASAEINPELGHAEITDCAVLPEYRGHSLTSFLIEALEKEMAGEDIVHVFSLARASSFGMNAVLYHSGYQYGGRLINNCFIAEGLENMNIWCKQL,not soluble
16,MGSDKIHHHHHHMLLDHIFICVDENAPEADELVFLGLAEGTPNRHRGQGTANRRFFLPGVMLELLWVADLNELQSVTTRTLGLADRFAARKDGGSPFGFVFKPKNPRIGNSCPFPFRSYHPAYLPETLDMKVADATPRIEPLYVFIDFLPASCSTAQHHPCGIERLTSVHVTFPAQGAPSPVARMIDSLPGMSARVGREHLLELCFDDGKRGVRHDFRNRLPLIIRW,not soluble
17,MGSDKIHHHHHHMLLDLERFYQACNPSRPLIIGNASDRRYYIDFAAVRGGKIIEALQRTIARISPDEPTCQLFTGHLGCGKSTELLRLKAELEAQQFHVVYFESTHVLEMADVDVTDILLAIAGQVSESLEAMKIRLKSTYFTKLFGEIVDFLQTPIDLGVEAELSVGIAKITAKTKESPQLRRRLRDYLEPRTANILQSINQELLERATKELKTKGKKGLVVIVDNLDRVAIRPLPSGRSLPEYLFIQRGEQLRKLNCHVVYTIPLALTFSNDSAELQHRLGGGVAPKMLPMIPVRLRSGEIFPQGLAMLRQMVLARAFPDILPSDRLGLITEVFDSLETLDRLCLISGGHVRDLLGLLFDCLREQDPPFERECVDLVIQRQRDYRANAIDPQEWELIFQVVQQQRVRGDIEYHTLLRSLFVFEYRDHQGAWFAVNPVLAETEKFKSWLNDTHKQI,not soluble
18,MGSDKIHHHHHHMLLPNTRLIAAEQLLSPVDAARNRRLADTALTTAKSAGASYCDVRVGRYLRQFVITREAQVENVVNAESSGVGVRVLADGAWGFAATNTLTSDGVATATRQAVAIAKANARLGGTPVQLAPVTPAGQVSWKTPIKKNAMEVPLQDKVALLMDVNAAALNAGATFVASRMFAINEQKYFASSDGSYIDQDVHRLWLPFTVTAVDKASGKFRTRDGLSSPMGMGYEYLDGAAGEKHRLPGGLIGYGRSYDAREDAIAAAKQAREKLTAPSVKAGKYDLVIDPSNLFLTIHESVGHPLELDRVLGYEANYAGTSFATLDKRDAGYRWGSDAVTFVADKTQPGSLGAVGYDDEGVKTKQWDLVKDGILVDYQCTRDQAHLLGKTASDGCSYADSWSNVQFQRMPNVSLAPGRTPLAVADMIKNVERGLYIHGRGSYSIDQQRYNAQFGGQLFYEIENGQVTRLVEDGAYQIRTPEFWNACSAVCDQRDFRLGGSFFDGKGQPSQVSAVSHGSSTARFDGINVINTARSLG,not soluble
